# pKd: −log10 of the molar value.
# Experiments:
# [1] = target: BimL-dCTS (Alexa568-labeled, recombinant) (murine); assay: FRET or BRET; with mouse liver mitochondria present (Bak-/-; 0.2 mg/mL in Figure 7—figure supplement 1B); 4 nM Alexa568-labeled BimL protein, Alexa647-labeled Bax or Bcl-XL titrated; apparent Kd
# [2] = target: BimL-dCTS (Alexa568-labeled, recombinant) (murine); assay: FRET or BRET; with mitochondrial-like liposomes present; constant Alexa568-labeled BimL protein (4 or 20 nM), Alexa647-labeled Bax or Bcl-XL titrated; apparent Kd
# [3] = target: BimL-I125E (Alexa568-labeled, recombinant) (murine); assay: FRET or BRET; values of Figure 6B (Alexa568-labeled BimL mutant, Alexa647-labeled Bcl-XL); the sentence does not say whether in solution or with liposomes
# [4] = target: BimL-dCTS (Alexa568-labeled, recombinant) (murine); assay: FRET or BRET; in solution, no membranes; constant Alexa568-labeled BimL protein (donor; 4, 10 or 20 nM), Alexa647-labeled Bax or Bcl-XL (acceptor) titrated; FRET from the decrease in Alexa568 fluorescence; Tecan infinite M1000
# [5] = target: Alexa647-labeled Bax (single cysteine mutant 126C) (human (H. sapiens)) (UniProt Q07812)
# [6] = target: Bax (single cysteine 126C, Alexa647-labeled, recombinant) (H. sapiens) (UniProt Q07812)
# [7] = target: Alexa568-labeled BimL-CTS2A (mouse (M. musculus)); assay: FRET or BRET; in solution, no membranes; 20 nM Alexa568-labeled BimL protein (donor) with increasing Alexa647-labeled Bcl-XL (acceptor); fit: one site, specific binding with Hill slope (BimL-dCTS: another model with a constant fixed at 4)
# [8] = target: Alexa568-labeled BimL-V124E (mouse (M. musculus)); assay: as above
# [9] = target: Alexa568-labeled BimL-I125E (mouse (M. musculus)); assay: as above
# [10] = target: Alexa568-labeled BimL (single-cysteine mutant BimL Q41C) (mouse (M. musculus)); assay: as above
# [11] = target: Alexa568-labeled BimL-4E (mouse (M. musculus)); assay: as above
# [12] = target: Alexa568-labeled BimL-dCTS (mouse (M. musculus)); assay: as above
# [13] = target: Alexa568-labeled BimL-L129E (mouse (M. musculus)); assay: as above
# [14] = target: Alexa568-labeled BimL-I132E (mouse (M. musculus)); assay: as above
# [15] = target: Bax (single cysteine 126C, Alexa647-labeled, recombinant) (H. sapiens) (UniProt Q07812); remark: listed apart in the source
# [16] = target: Alexa568-labeled BimL-4E (mouse (M. musculus)); assay: FRET or BRET; in solution, no membranes; constant Alexa568-labeled BimL protein (donor; 4 nM by the legend of Figure 3C, 20 nM by that of Figure 6-figure supplement 1) with increasing Alexa647-labeled Bax (acceptor); FRET from the decrease in Alexa568 fluorescence; fit: one site, specific binding with Hill slope
# [17] = target: Alexa568-labeled BimL-dCTS (mouse (M. musculus)); assay: FRET or BRET; with mouse liver mitochondria present; 4 nM Alexa568-labeled BimL or BimL-dCTS with increasing Alexa647-labeled Bax; fit in the sheet: Kd fitting advanced (donor fixed at 4)
# Chain of Bax (single cysteine 126C, Alexa647-labeled, recombinant) (H. sapiens) (Q07812 whole entry C62A): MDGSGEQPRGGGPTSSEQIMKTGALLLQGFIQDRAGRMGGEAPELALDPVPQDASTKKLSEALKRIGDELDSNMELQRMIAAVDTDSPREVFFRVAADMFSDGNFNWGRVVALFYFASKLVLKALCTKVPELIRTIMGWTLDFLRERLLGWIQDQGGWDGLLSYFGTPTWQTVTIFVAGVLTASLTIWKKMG
# Chain of Alexa647-labeled Bax (single cysteine mutant 126C) (human (H. sapiens)) (Q07812 other isoform, or with tags, fused parts or gaps mutant): as the sequence (Q07812 whole entry C62A) above
# Chain of Alexa568-labeled BimL-4E (mouse (M. musculus)) (main, as listed by the source): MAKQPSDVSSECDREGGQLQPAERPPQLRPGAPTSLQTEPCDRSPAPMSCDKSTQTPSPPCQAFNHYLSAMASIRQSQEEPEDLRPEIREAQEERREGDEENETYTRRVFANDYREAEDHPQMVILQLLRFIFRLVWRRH
substance,measurement,setting,value
"Bcl-XL (single cysteine 152C, Alexa647-labeled, recombinant) (from UniProt Q07817-1 1-233) (natural protein)",pKd,[1],7.46
same,pKd,[2],7.46
same,pKd,[3],> 8.52
same,pKd,[4],> 7.80
Alexa568-labeled BimL-L129E (natural protein),EC50 of Bax (100 nM) activation by BimL-L129E: ANTS/DPX release from liposomes,[5],2170 nM
"BimL-I125E (Alexa568-labeled, recombinant) (natural protein)",EC50 of Bax-mediated permeabilisation of ANTS/DPX liposomes (100 nM Bax),[6],100 nM
Alexa568-labeled BimL (single-cysteine mutant BimL Q41C) (natural protein),EC50 of Bax (100 nM) activation by BimL: ANTS/DPX release from liposomes,[5],0.549 nM
Alexa568-labeled BimL-I125E (natural protein),EC50 of Bax (100 nM) activation by BimL-I125E: ANTS/DPX release from liposomes,[5],105 nM
Alexa568-labeled BimL-V124E (natural protein),EC50 of Bax (100 nM) activation by BimL-V124E: ANTS/DPX release from liposomes,[5],1.21 nM
Alexa568-labeled BimL-dCTS (domain or fragment),EC50 of Bax (100 nM) activation by BimL-dCTS: ANTS/DPX release from liposomes,[5],489000 nM
Alexa568-labeled BimL-I132E (natural protein),EC50 of Bax (100 nM) activation by BimL-I132E: ANTS/DPX release from liposomes,[5],2800 nM
Alexa647-labeled Bcl-XL (single cysteine mutant 152C) (from UniProt Q07817-1 1-233) (natural protein),pKd,[7],7.96
same,pKd,[8],7.95
same,pKd,[9],8.09
same,pKd,[10],8.08
same,pKd,[11],4.15
same,pKd,[12],7.76
same,pKd,[13],8.04
same,pKd,[14],8.01
"BimL (single cysteine Q41C, Alexa568-labeled, recombinant) (natural protein)",ANTS/DPX release after adding increasing Bax to isolated liposomes carrying ~5 nM membrane-bound BimL,[15],60%
same,EC50 of Bax-mediated permeabilisation of ANTS/DPX liposomes (100 nM Bax),[6],1 nM
Alexa647-labeled Bax (single cysteine mutant 126C) (from UniProt Q07812 1-192) (natural protein),pKd,[16],4.13
same,pKd,[17],8.24

# — article PMC6980855
